Series [1] is described as follows: In vitro sialylation of LNT by protein extracts, LST-a/-b quantified by LC-MS/MS. In kind it is biochemical. The following applies: for Relative efficacy of sialyltransferases regarding in-vitro production of sialyllacto-N-tetraoses: LST-a / Relative efficacy of sialyltransferases regarding in-vitro production of sialyllacto-N-tetraoses: LST-b: 5 mM LNT, 10 mM CMP-Neu5Ac, 16 hours, LC-MS/MS, relative quantity, n.d.: not detectable; for Ranking in the screening for sialylation of LNT: in words. The procedure, abridged:
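E. coli BL21(DE3) crude extracts overexpressing sialyltransferases (IPTG 0.3 mM, 12–16 h at 30 °C) incubated 16 h with 5 mM LNT and 10 mM CMP-Neu5Ac in 50 mM Tris-HCl pH 7.5, 5 mM MgCl2. LST-a and LST-b measured by HILIC LC-MS/MS, MRM in ESI negative mode, against commercial standards.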

A short description of series [2]: In vitro kinetics (Km, Vmax), donor substrate CMP-Neu5Ac. In kind it is biochemical. The settings on record: for Km / Vmax CMP-Neu5Ac: 30° C., pH7.5, protein extract. As for the experimental part:
(§1) To rank the best performing sialyltransferases, their Km values for donor and acceptor substrates were determined in vitro. Escherichia coli BL21(DE3) strain #287 was used for overproduction of the enzymes. Cells were incubated in 100 ml 2YT medium in shaking flasks supplemented with 100 μg m^−1 ampicillin at 30° C. until an OD600 of 0.3 was reached. Then, 0.3 mM IPTG was added and the incubation was continued for 12 to 16 hours. Cells were harvested by centrifugation and mechanically disrupted in a defined volume of 50 mM Tris-HCl pH7.5 using glass beads. The protein extract was kept on ice until the assay started. The in vitro assay was carried out in a total volume of 50 μl including 50 mM Tris-HCl pH7.5, 5 mM MgCl2 and varying concentrations of CMP-Neu5Ac (0.05-30 mM) as well as of lactose or LNT (0.1-50 mM). The assay started with the addition of 35 to 750 μg protein extract. After 1 to 10 minutes of incubation at 30° C., the assay was inactivated at 95° C. for 5 minutes. Product formation was determined by mass spectrometry. Data were evaluated using the enzyme kinetic module of SigmaPlot v12.5 to calculate Km and Vmax.
(§2) Their kinetic parameters for CMP-Neu5Ac and LNT as well as lactose are depicted in Table 6.

A short description of series [3]: In vitro kinetics (Km, Vmax), acceptor substrate lactose. Format: biochemical. The settings on record: 30° C., pH7.5, protein extract. On the procedure:
as §1, §2

Series [4] can be described thus: In vitro kinetics (Km, Vmax), acceptor substrate LNT. In kind it is biochemical. The following applies: 30° C., pH7.5, protein extract. On the procedure: as §1, §2
Series [5] in a line: In vivo screening in E. coli #1363/#1730 with lactose as acceptor, sialyllactose identified by TLC. The following applies: for Production of sialyllactose in-vivo: 1.5 mM lactose, 72 to 96 hours, qualitative via TLC. In kind it is cell-based, Escherichia coli BL21(DE3). Summed up: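 E. coli BL21(DE3) #1363/#1730 expressing sialyltransferases were grown at 30 °C in mineral salts medium with 2% glucose and induced with 0.3 mM IPTG. After 1 h, 1.5 mM lactose was added, plus 1.5 mM sialic acid for #1730, and incubation ran 72–96 h. Cell lysates were analysed by silica TLC with thymol staining.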

B1: SiaT8: sialyltransferase of Photobacterium sp. JT-ISH-224, acc. BAF92025, SEQ ID NO: 3 (protein, listed as Photobacterium sp.)
chain: MGCNSDSNHNNSDGNITKNKTIEVYVDRATLPTIQQMTQIINENSNNKKLISWSRYPINDEELLESINGSFFKNNSELIKSLDSMILTNDIKKVIINGNTLWAADVVNIIKSIEAFGKKTEIELNFYDDGSAEYVRLYDFSKLPESEQEYKISLSKDNILSSINGTQPFENVVENIYGFSQLYPTTYHMLRADIFETNLPLRSLKGVLSNNIKQMKWDYFKTFNSQQKDKFYNFTGFNPDEIMEQYKASPNKNFIFVGTNSGTATAEQQIDILTEAKNPNSPIITKSIQGFDLFFKGHPSATYNKQIIDAHNMIEIYNKIPFEALIMTDALPDAVGGMGSSVFFSLPNTVENKFIFYKSDTDIENNALIQVMIELNIVNRNDVKLISDLQ
B1: in series [1], the “Relative efficacy of sialyltransferases regarding in-vitro production of sialyllacto-N-tetraoses: LST-a” value is recorded as 4.00 × 10^3 and the “Ranking in the screening for sialylation of LNT” value (from here on “Ranking in the screening”) is on record as “best performing α-2,3-sialyltransferases for LST-a production”. For the same molecule, in series [2], the Km was 4 mM and the “Vmax CMP-Neu5Ac” value was found to be 0.35 µmol/min. In series [3], the Km is 4.3 mM and the “Vmax Lactose” value was 0.37 µmol/min. Also, in series [4], the Km was 4.2 mM and the “Vmax LNT” value worked out at 0.32 µmol/min.

B2: SiaT6: sialyltransferase of Photobacterium sp. JT-ISH-224, acc. BAF92026, SEQ ID NO: 29 (protein, listed as Photobacterium sp.)
chain: MSEENTQSIIKNDINKTIIDEEYVNLEPINQSNISFTKHSWVQTCGTQQLLTEQNKESISLSVVAPRLDDDEKYCFDFNGVSNKGEKYITKVTLNVVAPSLEVYVDHASLPTLQQLMDIIKSEEENPTAQRYIAWGRIVPTDEQMKELNITSFALINNHTPADLVQEIVKQAQTKHRLNVKLSSNTAHSFDNLVPILKELNSFNNVTVTNIDLYDDGSAEYVNLYNWRDTLNKTDNLKIGKDYLEDVINGINEDTSNTGTSSVYNWQKLYPANYHFLRKDYLTLEPSLHELRDYIGDSLKQMQWDGFKKFNSKQQELFLSIVNFDKQKLQNEYNSSNLPNFVFTGTTVWAGNHEREYYAKQQINVINNAINESSPHYLGNSYDLFFKGHPGGGIINTLIMQNYPSMVDIPSKISFEVLMMTDMLPDAVAGIASSLYFTIPAEKIKFIVFTSTETITDRETALRSPLVQVMIKLGIVKEENVLFWADLPNCETGVCIAV
Regarding B2, in series [1], the “Relative efficacy of sialyltransferases regarding in-vitro production of sialyllacto-N-tetraoses: LST-b” value was found to be 300 and the “Ranking in the screening” value is on record as “sialylate LNT most efficiently among the tested α-2,6-sialyltransferases”. In addition, the “Production of sialyllactose in-vivo” value in series [5] was 6′-SL. In addition, the “Described activity confirmed in the lactose screening” value in series [5] (in words) is given as “could be confirmed”. Moreover, in series [2], the Michaelis constant (Km) turned out to be 2 mM and the “Vmax CMP-Neu5Ac” value stood at 0.16 µmol/min. Also, in series [3], the Km was 5.6 mM and the “Vmax Lactose” value is 0.20 µmol/min. In series [4], the Km turned out to be 5.5 mM and the “Vmax LNT” value turned out to be 0.13 µmol/min.

B3: SiaT20: sialyltransferase of Campylobacter coli, acc. YP_008473374, SEQ ID NO: 1 (protein, listed as Campylobacter coli)
chain: MQNVIIAGNGPSLQSINYQRLPKEYDIFRCNQFYFEDKYYLGKNIKAAFFNPYPFLQQYHTAKQLVFNNEYKIENIFCSTFNLPFIEKDNFINKFYDFFPDAKLGHKIIENLKEFYAYIKYNEIYLNKRITSGIYMCAIAIALGYKNIYLCGIDFYEGETIYPFKAMSKNIKKIFPWIKDFNPSNFHSKEYDIEILKLLESIYKVNIYALCDNSALANYFPLLVNTDNSFVLENKSDDCINDILLTNNTPGINFYKSQIQVNNTEILLLNFQNMISAKENEISNLNKILQDSYKTINTKENEISNLNKILQDSYKTINTKENEISNLNKILQDKDKLLIVKENLLNFKSRHGKAKFRIQNQLSYKLGQAMMVNSKSLLGYIRMPFVLSYIKDKHKQEQKIYQEKIKKDPSLTLPPLEDYPDYKEALKEKECLTYRLGQTLIKADQEWYKGGYVKMWFEIKKLKKEYKKK
B3: in series [1], the “Relative efficacy of sialyltransferases regarding in-vitro production of sialyllacto-N-tetraoses: LST-a” value is given as 1.00 × 10^4 and the “Ranking in the screening” value was “best performing α-2,3-sialyltransferases for LST-a production”. For the same molecule, in series [5], the “Production of sialyllactose in-vivo” value is 3′-SL. Moreover, the Michaelis-Menten behaviour entry in series [2] (kinetic parameters for CMP-Neu5Ac, LNT and lactose) is reported as “does not follow a Michaelis-Menten kinetic”.

B4: SiaT18: sialyltransferase of Photobacterium leiognathi JT-SHIZ-119, acc. AB500947, SEQ ID NO: 28 (protein, listed as Photobacterium leiognathi)
chain: MCNDNQNTVDVVVSTVNDNVIENNTYQVKPIDTPTTFDSYSWIQTCGTPILKDDEKYSLSFDFVAPELDQDEKFCFEFTGDVDGKRYVTQTNLTVVAPTLEVYVDHASLPSLQQLMKIIQQKNEYSQNERFISWGRIGLTEDNAEKLNAHIYPLAGNNTSQELVDAVIDYADSKNRLNLELNTNTAHSFPNLAPILRIISSKSNILISNINLYDDGSAEYVNLYNWKDTEDKSVKLSDSFLVLKDYFNGISSEKPSGIYGRYNWHQLYNTSYYFLRKDYLTVEPQLHDLREYLGGSLKQMSWDGFSQLSKGDKELFLNIVGFDQEKLQQEYQQSELPNFVFTGTTTWAGGETKEYYAQQQVNVVNNAINETSPYYLGREHDLFFKGHPRGGIINDIILGSFNNMIDIPAKVSFEVLMMTGMLPDTVGGIASSLYFSIPAEKVSFIVFTSSDTITDREDALKSPLVQVMMTLGIVKEKDVLFWSDLPDCSSGVCIAQY
Consider B4, for which, in series [1], the “Relative efficacy of sialyltransferases regarding in-vitro production of sialyllacto-N-tetraoses: LST-b” value is listed as 303 and the “Ranking in the screening” value was “sialylate LNT most efficiently among the tested α-2,6-sialyltransferases”. Also, the “Production of sialyllactose in-vivo” value in series [5] is recorded as 6′-SL. Besides, in series [2], the Km stood at 2.8 mM and the “Vmax CMP-Neu5Ac” value was 0.21 µmol/min. Further, in series [3], the Km was determined as 7.6 mM and the “Vmax Lactose” value came to 0.21 µmol/min. Also, in series [4], the Km is 5.2 mM and the “Vmax LNT” value is 0.14 µmol/min.

The values above are taken from patent publication US12692524B2, “Sialyltransferases and their use in producing sialylated oligosaccharides” (Chr. Hansen A/S, priority 2017, dated 2026).
